For this experiment, the target named is T1, RXFP1 receptor expressed by transient transfection in HEK293T cells (UniProt Q9HBX9 1-757, limits assumed).
T1 sequence (looked up): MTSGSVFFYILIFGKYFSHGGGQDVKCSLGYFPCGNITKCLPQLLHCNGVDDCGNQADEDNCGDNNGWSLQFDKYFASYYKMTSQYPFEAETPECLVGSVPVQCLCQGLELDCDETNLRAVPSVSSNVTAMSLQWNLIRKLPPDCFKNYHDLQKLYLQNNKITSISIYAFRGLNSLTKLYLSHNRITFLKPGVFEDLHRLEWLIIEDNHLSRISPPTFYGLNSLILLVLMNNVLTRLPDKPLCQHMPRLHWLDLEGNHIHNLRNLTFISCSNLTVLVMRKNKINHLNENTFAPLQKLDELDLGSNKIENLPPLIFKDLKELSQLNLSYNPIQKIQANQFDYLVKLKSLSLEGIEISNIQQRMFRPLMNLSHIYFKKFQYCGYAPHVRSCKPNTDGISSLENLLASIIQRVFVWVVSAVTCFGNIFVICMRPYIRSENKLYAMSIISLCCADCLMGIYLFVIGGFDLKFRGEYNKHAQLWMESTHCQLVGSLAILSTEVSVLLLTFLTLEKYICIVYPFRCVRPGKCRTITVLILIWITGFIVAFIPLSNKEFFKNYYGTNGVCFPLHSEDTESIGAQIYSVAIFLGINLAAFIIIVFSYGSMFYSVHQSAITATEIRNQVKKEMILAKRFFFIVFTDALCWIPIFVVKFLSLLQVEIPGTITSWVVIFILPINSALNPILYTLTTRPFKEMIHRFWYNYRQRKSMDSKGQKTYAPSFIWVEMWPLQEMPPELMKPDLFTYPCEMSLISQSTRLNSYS
In words: cell-based or functional assay.

B1: SE401, Single-chain relaxin with the combined substitutions of SE201, 204-207, fused to the C-terminus of mouse serum albumin with an N-terminal 8X His-tag (other)
chain: HHHHHHHHRGVFRREAHKSEIAHRYNDLGEQHFKGLVLIAFSQYLQKCSYDEHAKLVQEVTDFAKTCVADESAANCDKSLHTLFGDKLCAIPNLRENYGELADCCTKQEPERNECFLQHKDDNPSLPPFERPEAEAMCTSFKENPTTFMGHYLHEVARRHPYFYAPELLYYAEQYNEILTQCCAEADKESCLTPKLDGVKEKALVSSVRQRMKCSSMQKFGERAFKAWAVARLSQTFPNADFAEITKLATDLTKVNKECCHGDLLECADDRAELAKYMCENQATISSKLQTCCDKPLLKKAHCLSEVEHDTMPADLPAIAADFVEDQEVCKNYAEAKDVFLGTFLYEYSRRHPDYSVSLLLRLAKKYEATLEKCCAEANPPACYGTVLAEFQPLVEEPKNLVKTNCDLYEKLGEYGFQNAILVRYTQKAPQVSTPTLVEAARNLGRVGTKCCTLPEDQRLPCVEDYLSAILNRVCLLHEKTPVSEHVTKCCSGSLVERRPCFSALTVDETYVPKEFKAETFTFHSDICTLPEKEKQIKKQTALAELVKHKPKATAEQLKTVMDDFAQFLDTCCKAADKDTCFSTEGPNLVTRCKDALAGGSDSWKEEVIKLCGRELVRAQIAICGKSTASDAAGANANAGARQLYSALANKCCHVGCTKRSLARFC
With B1, the response was half-maximal at 52.6 nM (EC50) and the “Emax (Native two-chain relaxin = 100% Emax)” value is 121%.

B2: SE005, Truncated His-tag single-chain relaxin (ligand)
chain: HHHHHHEEVIKLCGRELVRAQIAICGMSTWSDAASSHSHSSARQLYSALANKCCHVGCTKRSLARFC
Regarding B2, the EC50 was determined as 0.485 nM and the “Emax (Native two-chain relaxin = 100% Emax)” value was determined as 112%.

B3: SE004, Protein C-tag and His-tag single-chain relaxin (ligand)
chain: EDQVDPRLIDGKGSHHHHHHDSWMEEVIKLCGRELVRAQIAICGMSTWSDAASSHSHSSARQLYSALANKCCHVGCTKRSLARFC
In the case of B3, the EC50 was 1.5 nM and the “Emax (Native two-chain relaxin = 100% Emax)” value turned out to be 117%.

B4: SE001, His-tag single-chain relaxin (ligand)
chain: HHHHHHDSWMEEVIKLCGRELVRAQIAICGMSTWSDAASSHSHSSARQLYSALANKCCHVGCTKRSLARFC
Take B4: the “Emax (Native two-chain relaxin = 100% Emax)” value is 118%.

Broadly, the EC50 is the midpoint of the concentration-response curve. A higher EC50 goes with a less potent agent.

Values taken from patent US20230174610A1 (Harvard, published 2023).
